Measured values: the Human Domainome abundance scans (Beltran et al. 2025)
± gives the uncertainty stated by the source.

B1: Homeobox protein cut-like 1, residues 548 to 629; numbered along this chain, P39880 (parent)
chain: GEEMDTAEIARQVKEQLIKHNIGQRIFGHYVLGLSQGSVSEILARPKPWNKLTVRGKEPFHKMKQFLSDEQNILALRSIQGR

Variants of: B1
Assay: abundance fitness (aPCA) (normalised: wild type 0, dead -1); higher = more abundant; growth selection in yeast, the domain comes from the species named
Conditions: Homo sapiens

GEEMDTAEIARQVKEQLIKHNIGQRIFGHYVLGLSQGSVSEILARPKPWNKLTVRGKEPFHKMKQFLSDEQNILALRSIQAR and GEEMDTAEIARQVKEQLIKHNIGQRIFGHYVLGLSQGSVSEILARPKPWNKLTVRGKEPFHKMKQFLSDEQNILALRSIQDR are within error of each other in abundance fitness: 0.044 ± 0.037 for the first, 0.043 ± 0.04 for the second.

GEEMDTAEIARQVKEQLIKHNIGQRIFGHYVLGLSQGSVSEILARPKPWNKLTVRGKEPFHKMKQFLSDEQNILALRSIQER and GEEMDTAEIARQVKEQLIKHNIGQRIFGHYVLGLSQGSVSEILARPKPWNKLTVRGKEPFHKMKQFLSDEQNILALRSIQCR are within error of each other in abundance fitness: 0.105 ± 0.048 for the first, 0.027 ± 0.047 for the second.

GEEMDTAEIARQVKEQLIKHNIGQRIFGHYVLGLSQGSVSEILARPKPWNKLTVRGKEPFHKMKQFLSDEQNILALRSMQGR and GEEMDTAEIARQVKEQLIKHNIGQRIFGHYVLGLSQGSVSEILARPKPWNKLTVRGKEPFHKMKQFLSDEQNILALRSHQGR are within error of each other in abundance fitness: 0.046 ± 0.039 for the first, -0.009 ± 0.05 for the second.

GEEMDTAEIARQVKEQLIKHNIGQRIFGHYVLGLSQGSVSEILARPKPWNKLTVRGKEPFHKMKQFLSDEQNILALRSFQGR and GEEMDTAEIARQVKEQLIKHNIGQRIFGHYVLGLSQGSVSEILARPKPWNKLTVRGKEPFHKMKQFLSDEQNILALRSCQGR are within error of each other in abundance fitness: -0.086 ± 0.056 for the first, 0.003 ± 0.055 for the second.

GEEMDTAEIARQVKEQLIKHNIGQRIFGHYVLGLSQGSVSEILARPKPWNKLTVRGKEPFHKMKQFLSDEQNILALRSDQGR and GEEMDTAEIARQVKEQLIKHNIGQRIFGHYVLGLSQGSVSEILARPKPWNKLTVRGKEPFHKMKQFLSDEQNILALRSPQGR are within error of each other in abundance fitness: -0.233 ± 0.055 for the first, -0.229 ± 0.041 for the second.

First: GEEMDTAEIARQVKEQLIKHNIGQRIFGHYVLGLSQGSVSEILARPKPWNKLTVRGKEPFHKMKQFLSDEQNILALRSGQGR
Second: GEEMDTAEIARQVKEQLIKHNIGQRIFGHYVLGLSQGSVSEILARPKPWNKLTVRGKEPFHKMKQFLSDEQNILALRSQQGR
The abundance fitness of the first is lower: -0.203 ± 0.027 for the first, 0.011 ± 0.039 for the second.

First: GEEMDTAEIARQVKEQLIKHNIGQRIFGHYVLGLSQGSVSEILARPKPWNKLTVRGKEPFHKMKQFLSDEQNILALRSLQGR
Second: GEEMDTAEIARQVKEQLIKHNIGQRIFGHYVLGLSQGSVSEILARPKPWNKLTVRGKEPFHKMKQFLSDEQNILALRSAQGR
The abundance fitness of the first is higher: 0.028 ± 0.03 for the first, -0.047 ± 0.03 for the second.

First: GEEMDTAEIARQVKEQLIKHNIGQRIFGHYVLGLSQGSVSEILARPKPWNKLTVRGKEPFHKMKQFLSDEQNILALRSVQGR
Second: GEEMDTAEIARQVKEQLIKHNIGQRIFGHYVLGLSQGSVSEILARPKPWNKLTVRGKEPFHKMKQFLSDEQNILALRSYQGR
The abundance fitness of the first is higher: 0.015 ± 0.028 for the first, -0.097 ± 0.061 for the second.

First: GEEMDTAEIARQVKEQLIKHNIGQRIFGHYVLGLSQGSVSEILARPKPWNKLTVRGKEPFHKMKQFLSDEQNILALRSRQGR
Second: GEEMDTAEIARQVKEQLIKHNIGQRIFGHYVLGLSQGSVSEILARPKPWNKLTVRGKEPFHKMKQFLSDEQNILALRSTQGR
The abundance fitness of the first is higher: -0.065 ± 0.027 for the first, -0.157 ± 0.037 for the second.

Compared with GEEMDTAEIARQVKEQLIKHNIGQRIFGHYVLGLSQGSVSEILARPKPWNKLTVRGKEPFHKMKQFLSDEQNILALRSKQGR, GEEMDTAEIARQVKEQLIKHNIGQRIFGHYVLGLSQGSVSEILARPKPWNKLTVRGKEPFHKMKQFLSDEQNILALRSWQGR is lower in abundance fitness: 0.038 ± 0.041 for the first, -0.09 ± 0.04 for the second.

Compared with GEEMDTAEIARQVKEQLIKHNIGQRIFGHYVLGLSQGSVSEILARPKPWNKLTVRGKEPFHKMKQFLSDEQNILALRSEQGR, GEEMDTAEIARQVKEQLIKHNIGQRIFGHYVLGLSQGSVSEILARPKPWNKLTVRGKEPFHKMKQFLSDEQNILALPSIQGR is lower in abundance fitness: -0.058 ± 0.034 for the first, -0.419 ± 0.062 for the second.

Compared with GEEMDTAEIARQVKEQLIKHNIGQRIFGHYVLGLSQGSVSEILARPKPWNKLTVRGKEPFHKMKQFLSDEQNILALMSIQGR, GEEMDTAEIARQVKEQLIKHNIGQRIFGHYVLGLSQGSVSEILARPKPWNKLTVRGKEPFHKMKQFLSDEQNILALQSIQGR is higher in abundance fitness: -0.096 ± 0.042 for the first, 0.018 ± 0.042 for the second.

GEEMDTAEIARQVKEQLIKHNIGQRIFGHYVLGLSQGSVSEILARPKPWNKLTVRGKEPFHKMKQFLSDEQNILALVSIQGR and GEEMDTAEIARQVKEQLIKHNIGQRIFGHYVLGLSQGSVSEILARPKPWNKLTVRGKEPFHKMKQFLSDEQNILALLSIQGR are within error of each other in abundance fitness: -0.035 ± 0.031 for the first, -0.073 ± 0.032 for the second.

GEEMDTAEIARQVKEQLIKHNIGQRIFGHYVLGLSQGSVSEILARPKPWNKLTVRGKEPFHKMKQFLSDEQNILALNSIQGR and GEEMDTAEIARQVKEQLIKHNIGQRIFGHYVLGLSQGSVSEILARPKPWNKLTVRGKEPFHKMKQFLSDEQNILALISIQGR are within error of each other in abundance fitness: -0.118 ± 0.057 for the first, -0.116 ± 0.057 for the second.

First: GEEMDTAEIARQVKEQLIKHNIGQRIFGHYVLGLSQGSVSEILARPKPWNKLTVRGKEPFHKMKQFLSDEQNILALWSIQGR
Second: GEEMDTAEIARQVKEQLIKHNIGQRIFGHYVLGLSQGSVSEILARPKPWNKLTVRGKEPFHKMKQFLSDEQNILALKSIQGR
The abundance fitness of the first is lower: -0.336 ± 0.041 for the first, 0.103 ± 0.043 for the second.

GEEMDTAEIARQVKEQLIKHNIGQRIFGHYVLGLSQGSVSEILARPKPWNKLTVRGKEPFHKMKQFLSDEQNILALSSIQGR and GEEMDTAEIARQVKEQLIKHNIGQRIFGHYVLGLSQGSVSEILARPKPWNKLTVRGKEPFHKMKQFLSDEQNILALRTIQGR are within error of each other in abundance fitness: 0.041 ± 0.03 for the first, 0.005 ± 0.04 for the second.

Work on GEEMDTAEIARQVKEQLIKHNIGQRIFGHYVLGLSQGSVSEILARPKPWNKLTVRGKEPFHKMKQFLSDEQNILALRKIQGR yielded an abundance fitness of 0.044 ± 0.04.
